In US20130089544A1:

Tests used:
[1] = target: human ErbB2 ECD-myc/His fusion protein (human) (UniProt P04626); assay: SPR, Biacore T100 high resolution; mAb captured on goat anti-human IgG, hHer-2(ECD)cMyc injected; 1:1 fit
[2] = target: human ErbB2, full length, on cells (human) (UniProt P04626); assay: cell-based or functional assay

Q: With chimeric anti-hErbB2 antibody 2C4 as the substance, how does the Kd [1] read?
A: 3.2 nM

Q: And the % Inhibition @10 µg/ml, Heregulin-induced MCF7 cell proliferation [2]?
A: 90%

Q: What about the EC50 (ng/ml) n1, inhibition of Heregulin-induced ErbB2 phosphorylation in MCF7 cells [2] of the same substance?
A: 43.6 ng/mL

Q: What about the EC50 (ng/ml) n2, inhibition of Heregulin-induced ErbB2 phosphorylation in MCF7 cells [2] of the same substance?
A: 14.6 ng/mL

Q: And the EC50 (ng/ml), inhibition of Heregulin-induced MCF7 cell proliferation [2]?
A: 404 ng/mL

Q: What about the EC50 (ng/ml), inhibition of SKBR3 cell proliferation [2] of the same substance?
A: > 36000 ng/mL

Q: What about the N1 % Inhibition @40 µg/ml, BT474 cell proliferation [2] of the same substance?
A: -9%

Q: What about the N1 EC50 (ng/ml), inhibition of BT474 cell proliferation [2] of the same substance?
A: > 40000 ng/mL

Q: What about the N2 EC50 (ng/ml), inhibition of BT474 cell proliferation [2] of the same substance?
A: 4750 ng/mL
